Sequences and labels used below:
B1: PHTF1 (parent)
chain: RVKLISNKGTETDNDPSCVHPIIK
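Note: lentivirally expressed fusions sorted by FACS into six bins by GFP to DsRed ratio, PSI derived from sequencing read proportions per bin multiplied by bin number.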

This data set covers variants of B1. Description: protein stability index of a GFP-peptide fusion (GPS, HEK-293T) (PSI 1-6); higher = more stable. The note with it: c terminus: a fixed tail appended.
In the case of RVKLISNKGTEGDNDPSCVHPIIK, the protein stability index is 4.14.
Turning to RVKLISNKGTEVDNDPSCVHPIIK, the protein stability index was found to be 4.01.
For RVKLISNKGTEFDNDPSCVHPIIK, the protein stability index worked out at 3.67.
Consider RVKLISNKGTECDNDPSCVHPIIK, for which the protein stability index stood at 3.87.
RVKLISNKGTEYDNDPSCVHPIIK: the protein stability index stood at 3.25.
With RVKLISNKGTEQDNDPSCVHPIIK, the protein stability index came to 4.18.
As to RVKLISNKGTELDNDPSCVHPIIK, the protein stability index amounted to 3.61.
With RVKLISNKGTEPDNDPSCVHPIIK, the protein stability index is 4.29.
As to RVKLISNKGTEHDNDPSCVHPIIK, the protein stability index is 4.24.
Take RVKLISNKGTEDDNDPSCVHPIIK: the protein stability index was 4.31.
Turning to RVKLISNKGTEMDNDPSCVHPIIK, the protein stability index was 3.44.
For RVKLISNKGTEEDNDPSCVHPIIK, the protein stability index was determined as 4.53.
With RVKLISNKGTESDNDPSCVHPIIK the figure was 4.09; with RVKLISNKGTERDNDPSCVHPIIK, 3.95.
For RVKLISNKGTEIDNDPSCVHPIIK, the protein stability index stood at 3.86.
For the variant RVKLISNKGTEKDNDPSCVHPIIK, the protein stability index stood at 4.49.
Regarding RVKLISNKGTEWDNDPSCVHPIIK, the protein stability index is 3.11.
In the case of RVKLISNKGTENDNDPSCVHPIIK, the protein stability index amounted to 4.26.
For the variant RVKLISNKDTETDNDPSCVHPIIK, the protein stability index was determined as 4.36.
As for RVKLISNKVTETDNDPSCVHPIIK, the protein stability index came out at 4.18.
As for RVKLISNKATETDNDPSCVHPIIK, the protein stability index came out at 4.12.
To RVKLISNKNTETDNDPSCVHPIIK belongs 4.17.
RVKLISNKFTETDNDPSCVHPIIK: the protein stability index is 3.19.
To RVKLISNKYTETDNDPSCVHPIIK belongs 3.44; to RVKLISNKKTETDNDPSCVHPIIK, 3.98; to RVKLISNKHTETDNDPSCVHPIIK, 4.03.
For RVKLISNKTTETDNDPSCVHPIIK, the protein stability index came out at 4.27.
For RVKLISNKQTETDNDPSCVHPIIK, the protein stability index is 4.31.
Consider RVKLISNKPTETDNDPSCVHPIIK, for which the protein stability index was determined as 3.95.
In the case of RVKLISNKWTETDNDPSCVHPIIK, the protein stability index is 2.8.
In the case of RVKLISNKITETDNDPSCVHPIIK, the protein stability index was 3.25.
For RVKLISNKCTETDNDPSCVHPIIK, the protein stability index was 3.56.
Regarding RVKLISNKMTETDNDPSCVHPIIK, the protein stability index was found to be 3.75.
Turning to RVKLISNKETETDNDPSCVHPIIK, the protein stability index was 4.23.
RVKLISNKLTETDNDPSCVHPIIK: the protein stability index is 3.64.
With RVKLISNKSTETDNDPSCVHPIIK the figure was 4.21; with RVKLISNKRTETDNDPSCVHPIIK, 3.54; with RVKFISNKGTETDNDPSCVHPIIK, 3.9.
With RVKSISNKGTETDNDPSCVHPIIK, the protein stability index was 4.61.
With RVKMISNKGTETDNDPSCVHPIIK the figure was 4.13; with RVKWISNKGTETDNDPSCVHPIIK, 4.24.
Take RVKPISNKGTETDNDPSCVHPIIK: the protein stability index came out at 4.82.
To RVKDISNKGTETDNDPSCVHPIIK belongs 4.18; to RVKVISNKGTETDNDPSCVHPIIK, 3.86; to RVKIISNKGTETDNDPSCVHPIIK, 4.19.
As for RVKAISNKGTETDNDPSCVHPIIK, the protein stability index came to 4.57.
With RVKYISNKGTETDNDPSCVHPIIK, the protein stability index was found to be 3.77.
With RVKRISNKGTETDNDPSCVHPIIK the figure was 4.25; with RVKGISNKGTETDNDPSCVHPIIK, 4.44; with RVKQISNKGTETDNDPSCVHPIIK, 5.02.
On to RVKKISNKGTETDNDPSCVHPIIK, for which the protein stability index came to 4.43.
Turning to RVKEISNKGTETDNDPSCVHPIIK, the protein stability index came out at 5.13.
With RVKTISNKGTETDNDPSCVHPIIK, the protein stability index worked out at 4.84.
As to RVKHISNKGTETDNDPSCVHPIIK, the protein stability index stood at 4.27.
With RVKNISNKGTETDNDPSCVHPIIK, the protein stability index was determined as 4.48.
With RVKCISNKGTETDNDPSCVHPIIK the figure was 4.48; with RVKLWSNKGTETDNDPSCVHPIIK, 3.6.
With RVKLQSNKGTETDNDPSCVHPIIK the figure was 4.8; with RVKLMSNKGTETDNDPSCVHPIIK, 4.3; with RVKLVSNKGTETDNDPSCVHPIIK, 4.
RVKLGSNKGTETDNDPSCVHPIIK: the protein stability index was determined as 4.09.
In the case of RVKLTSNKGTETDNDPSCVHPIIK, the protein stability index came to 4.25.
In the case of RVKLDSNKGTETDNDPSCVHPIIK, the protein stability index stood at 4.7.
To RVKLESNKGTETDNDPSCVHPIIK belongs 4.63.
Turning to RVKLYSNKGTETDNDPSCVHPIIK, the protein stability index came out at 3.75.
On to RVKLSSNKGTETDNDPSCVHPIIK, for which the protein stability index was found to be 4.3.
To RVKLNSNKGTETDNDPSCVHPIIK belongs 4.41.
With RVKLPSNKGTETDNDPSCVHPIIK the figure was 4.8; with RVKLRSNKGTETDNDPSCVHPIIK, 3.86.
To RVKLLSNKGTETDNDPSCVHPIIK belongs 4.4.
As to RVKLFSNKGTETDNDPSCVHPIIK, the protein stability index came out at 4.02.
Regarding RVKLCSNKGTETDNDPSCVHPIIK, the protein stability index worked out at 3.97.
On to RVKLASNKGTETDNDPSCVHPIIK, for which the protein stability index worked out at 4.11.
With RVKLHSNKGTETDNDPSCVHPIIK, the protein stability index is 4.3.
In the case of RVKLKSNKGTETDNDPSCVHPIIK, the protein stability index worked out at 4.01.
Turning to RVKLISNKGFETDNDPSCVHPIIK, the protein stability index came to 3.1.
With RVKLISNKGPETDNDPSCVHPIIK the figure was 4.29; with RVKLISNKGSETDNDPSCVHPIIK, 3.88; with RVKLISNKGNETDNDPSCVHPIIK, 4.2.
As to RVKLISNKGAETDNDPSCVHPIIK, the protein stability index worked out at 4.2.
On to RVKLISNKGKETDNDPSCVHPIIK, for which the protein stability index came to 3.95.
Turning to RVKLISNKGMETDNDPSCVHPIIK, the protein stability index amounted to 3.98.
For RVKLISNKGDETDNDPSCVHPIIK, the protein stability index worked out at 4.1.
As to RVKLISNKGVETDNDPSCVHPIIK, the protein stability index amounted to 3.38.
RVKLISNKGRETDNDPSCVHPIIK: the protein stability index is 3.91.
For RVKLISNKGCETDNDPSCVHPIIK, the protein stability index came out at 3.8.
Consider RVKLISNKGIETDNDPSCVHPIIK, for which the protein stability index stood at 3.74.
RVKLISNKGYETDNDPSCVHPIIK: the protein stability index worked out at 3.94.
With RVKLISNKGEETDNDPSCVHPIIK, the protein stability index is 4.26.
As to RVKLISNKGWETDNDPSCVHPIIK, the protein stability index turned out to be 2.66.
For RVKLISNKGGETDNDPSCVHPIIK, the protein stability index came out at 4.01.
Turning to RVKLISNKGLETDNDPSCVHPIIK, the protein stability index came to 3.38.
In the case of RVKLISNKGQETDNDPSCVHPIIK, the protein stability index worked out at 4.51.
In the case of RVKLISNKGHETDNDPSCVHPIIK, the protein stability index came out at 4.52.

Values taken from the supplement of paper PMC10567573.
